From patent US20160185837A1, “GIP AND GLP-1 RECEPTOR DUAL-AGONISTS FOR THE TREATMENT OF DIABETES” (Medimmune Limited, priority 2013, published 2016)
Ends that are not written are not given here.

T1: human GIP receptor (human) (UniProt P48546)
T1 sequence (looked up): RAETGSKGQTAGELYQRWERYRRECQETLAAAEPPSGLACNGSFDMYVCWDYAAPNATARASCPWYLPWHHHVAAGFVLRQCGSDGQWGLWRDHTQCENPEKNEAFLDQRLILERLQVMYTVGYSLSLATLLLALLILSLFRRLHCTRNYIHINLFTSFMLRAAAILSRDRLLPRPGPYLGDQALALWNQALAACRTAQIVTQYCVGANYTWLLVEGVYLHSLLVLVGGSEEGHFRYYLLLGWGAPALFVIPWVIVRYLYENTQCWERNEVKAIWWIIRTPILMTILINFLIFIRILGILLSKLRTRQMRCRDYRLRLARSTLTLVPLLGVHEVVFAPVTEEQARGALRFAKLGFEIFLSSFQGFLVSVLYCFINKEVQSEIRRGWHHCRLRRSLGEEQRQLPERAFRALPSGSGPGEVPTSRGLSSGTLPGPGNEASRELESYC

T2: rat GIP receptor (rat) (UniProt P43219)
T2 sequence (looked up): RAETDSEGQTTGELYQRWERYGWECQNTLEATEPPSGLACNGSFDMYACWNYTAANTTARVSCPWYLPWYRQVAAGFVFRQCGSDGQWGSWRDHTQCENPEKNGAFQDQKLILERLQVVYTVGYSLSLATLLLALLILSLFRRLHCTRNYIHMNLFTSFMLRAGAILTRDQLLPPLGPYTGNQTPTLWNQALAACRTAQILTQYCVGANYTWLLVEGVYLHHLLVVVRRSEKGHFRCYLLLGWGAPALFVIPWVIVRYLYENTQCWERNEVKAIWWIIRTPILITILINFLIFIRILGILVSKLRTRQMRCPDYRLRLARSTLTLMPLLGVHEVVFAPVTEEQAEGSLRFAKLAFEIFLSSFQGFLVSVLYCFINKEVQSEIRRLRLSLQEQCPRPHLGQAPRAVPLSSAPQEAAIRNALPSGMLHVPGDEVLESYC

T3: mouse GIP receptor (mouse) (UniProt Q0P543)
T3 sequence (looked up): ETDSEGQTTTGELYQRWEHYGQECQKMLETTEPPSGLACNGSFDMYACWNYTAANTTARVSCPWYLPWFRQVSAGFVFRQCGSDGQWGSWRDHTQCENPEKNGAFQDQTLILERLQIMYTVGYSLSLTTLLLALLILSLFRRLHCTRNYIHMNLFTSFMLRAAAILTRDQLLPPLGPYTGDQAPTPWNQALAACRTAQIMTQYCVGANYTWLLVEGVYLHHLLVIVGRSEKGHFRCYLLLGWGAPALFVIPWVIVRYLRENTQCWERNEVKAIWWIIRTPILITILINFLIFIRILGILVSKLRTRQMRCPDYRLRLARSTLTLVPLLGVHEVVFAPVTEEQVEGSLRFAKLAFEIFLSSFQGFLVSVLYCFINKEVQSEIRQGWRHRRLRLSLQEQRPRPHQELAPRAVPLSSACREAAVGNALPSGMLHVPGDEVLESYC


Tests used:
Test in all cases: cell-based or functional assay
[1] = target: T1, human GIP receptor (human)
[2] = target: rat GLP-1 receptor (rat) (UniProt P32301)
Sequence of rat GLP-1 receptor (rat) (P32301 22-463): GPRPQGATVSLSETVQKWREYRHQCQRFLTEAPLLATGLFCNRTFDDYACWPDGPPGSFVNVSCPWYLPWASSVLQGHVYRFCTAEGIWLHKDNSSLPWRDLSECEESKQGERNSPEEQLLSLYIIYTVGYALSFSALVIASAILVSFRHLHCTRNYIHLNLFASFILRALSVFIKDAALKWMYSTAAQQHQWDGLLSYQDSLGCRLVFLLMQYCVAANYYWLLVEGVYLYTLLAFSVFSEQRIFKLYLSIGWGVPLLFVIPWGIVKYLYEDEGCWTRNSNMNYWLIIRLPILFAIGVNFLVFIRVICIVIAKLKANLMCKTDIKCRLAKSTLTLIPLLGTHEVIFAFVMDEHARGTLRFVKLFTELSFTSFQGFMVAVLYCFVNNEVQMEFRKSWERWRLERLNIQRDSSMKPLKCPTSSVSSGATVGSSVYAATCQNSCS

[3] = target: mouse GLP-1 receptor (mouse) (UniProt O35659)
Sequence of mouse GLP-1 receptor (mouse) (O35659 22-463): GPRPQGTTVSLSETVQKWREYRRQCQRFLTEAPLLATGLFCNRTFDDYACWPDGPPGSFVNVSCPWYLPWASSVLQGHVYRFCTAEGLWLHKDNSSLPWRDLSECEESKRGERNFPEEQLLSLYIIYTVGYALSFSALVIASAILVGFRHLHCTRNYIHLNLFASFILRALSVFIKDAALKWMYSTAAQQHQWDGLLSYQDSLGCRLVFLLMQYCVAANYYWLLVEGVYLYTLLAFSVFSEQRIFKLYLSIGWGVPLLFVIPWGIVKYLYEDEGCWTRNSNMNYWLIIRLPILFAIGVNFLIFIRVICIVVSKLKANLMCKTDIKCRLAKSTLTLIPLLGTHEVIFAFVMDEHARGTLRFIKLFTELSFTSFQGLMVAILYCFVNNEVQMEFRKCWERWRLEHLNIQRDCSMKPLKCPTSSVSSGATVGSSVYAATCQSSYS

[4] = target: T2, rat GIP receptor (rat)
[5] = target: human glucagon receptor (human) (UniProt P47871)
Sequence of human glucagon receptor (human) (P47871 26-477): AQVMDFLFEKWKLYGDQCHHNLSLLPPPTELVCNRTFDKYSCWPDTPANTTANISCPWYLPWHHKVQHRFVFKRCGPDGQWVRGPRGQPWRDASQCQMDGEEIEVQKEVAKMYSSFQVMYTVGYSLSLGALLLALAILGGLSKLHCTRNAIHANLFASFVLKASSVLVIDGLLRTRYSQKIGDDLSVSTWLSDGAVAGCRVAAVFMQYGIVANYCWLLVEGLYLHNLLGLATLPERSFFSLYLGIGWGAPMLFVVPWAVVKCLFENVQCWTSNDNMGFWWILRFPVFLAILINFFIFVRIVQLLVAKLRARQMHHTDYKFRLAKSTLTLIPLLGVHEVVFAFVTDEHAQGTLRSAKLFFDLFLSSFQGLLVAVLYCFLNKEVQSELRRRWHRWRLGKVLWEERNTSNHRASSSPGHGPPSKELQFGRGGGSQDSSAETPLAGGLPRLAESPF

[6] = target: T3, mouse GIP receptor (mouse)
[7] = target: human GLP-1 receptor (human) (UniProt P43220)
Sequence of human GLP-1 receptor (human) (P43220 24-463): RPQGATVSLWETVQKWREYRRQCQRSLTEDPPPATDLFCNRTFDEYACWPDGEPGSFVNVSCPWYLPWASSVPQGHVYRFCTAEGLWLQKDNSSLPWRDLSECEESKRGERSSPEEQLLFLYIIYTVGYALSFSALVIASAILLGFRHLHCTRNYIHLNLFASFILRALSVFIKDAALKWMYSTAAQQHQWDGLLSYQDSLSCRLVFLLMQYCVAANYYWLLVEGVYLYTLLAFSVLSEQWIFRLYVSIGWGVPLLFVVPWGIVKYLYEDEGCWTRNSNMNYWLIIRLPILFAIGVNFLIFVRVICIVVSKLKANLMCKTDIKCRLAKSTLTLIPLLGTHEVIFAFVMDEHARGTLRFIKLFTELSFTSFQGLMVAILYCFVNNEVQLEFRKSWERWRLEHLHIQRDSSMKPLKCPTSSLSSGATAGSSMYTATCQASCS

[8] = target: cynomolgus monkey glucagon receptor (cynomolgus monkey)
[9] = target: cynomolgus monkey GLP-1 receptor (cynomolgus monkey) (UniProt F8V479)
Sequence of cynomolgus monkey GLP-1 receptor (cynomolgus monkey) (F8V479 entry or part of it): as the sequence (P43220 24-463) above, with S112N, F120S, S202G, L205V, L237F, W241R, I249V counted along it

Binder	cAMP EC50 [1] [nM]	cAMP EC50 [2] [nM]	cAMP EC50 [3] [nM]	cAMP EC50 [4] [nM]	cAMP EC50 [5] [nM]	cAMP EC50 [6] [nM]	cAMP EC50 [7] [nM]	cAMP EC50, hGIPr (C3) line [1] [nM]	cAMP EC50, 4.2% cyno serum albumin [8] [nM]	cAMP EC50, 4.2% cyno serum albumin [9] [nM]
IP329 (Fc fusion) YSEGTFTSDYSKLLERQAIDEFIAELLKGGGGGGGSGGGGSGGGGSGGGGSGGGGSGGGGSA	0.011	0.18	9	0.06	> 1430	2.6	1.4	–	–	–
IP301 (Fc fusion) YSEGTFTSDVSSYLEREAIDEFIAWLLKGGAAAGGSGSTASSGSGSATGGGGAATHTCPPC	0.12	0.058	1.9	4.7	12000	22	0.31	–	–	–
IP307 (Fc fusion) YSEGTFTSDVSSYMERQAIDEFIAWLLKQGAAAGGSGSTASSGSGSATGGGGAATHTCPPC	0.091	0.21	6.5	5.2	4100	31	1.6	–	–	–
IP306 (Fc fusion) YSEGTFTSDYSKLLERQAIDEFIAWLLKGGAAAGGSGSTASSGSGSATGGGGAATHTCPPC	0.011	0.015	0.25	0.026	220	0.25	0.1	–	–	–
IP315 (Fc fusion) YSEGTFISDYSSYLERQAIDEFIAWLLKGGAAAGGSGSTASSGSGSATGGGGAATHTCPPC	0.024	13	> 5460	0.096	280	0.36	> 5460	–	–	–
IP309 (Fc fusion) YSEGTFISDVSSYLERQAIDEFIAWLLKGGAAAGGSGSTASSGSGSATGGGGAATHTCPPC	0.086	1.7	16	1.3	900	15	7.7	–	–	–
IP380 (Fc fusion) YSEGTFTSDYSKLLEEEAVRLFIEFLLAGGGGGGSGGGGSGGGGSGGGGSATHTCPPC	0.0084	0.031	1.2	0.06	25	6.6	0.11	–	–	–

The next lines start with the values.

cAMP EC50 [1] [nM]	cAMP EC50 [2] [nM]	cAMP EC50 [3] [nM]	cAMP EC50 [4] [nM]	cAMP EC50 [5] [nM]	cAMP EC50 [6] [nM]	cAMP EC50 [7] [nM]	cAMP EC50, hGIPr (C3) line [1] [nM]	cAMP EC50, 4.2% cyno serum albumin [8] [nM]	cAMP EC50, 4.2% cyno serum albumin [9] [nM]	Binder
0.15	0.038	1.4	5.2	3700	31	0.35	–	–	–	IP310 (Fc fusion) YSEGTFTSDVSSYMERQAIDEFIAWLLKGKAAAGGSGSTASSGSGSATGGGGAATHTCPPC
0.048	5.4	> 1060	1.2	> 5310	16	> 5310	–	–	–	IP312 (Fc fusion) YSEGTFISDVSSYMERQAIDEFIAWLLKGGAAAGGSGSTASSGSGSATGGGGAATHTCPPC
–	0.022	1.2	0.018	> 440	0.4	0.073	1.3	–	–	IP412 (Fc fusion) YSEGTFTSDYSKLLEEEANRLFIEWLLAGGGGGGSGGGGSGGGGSGGGGSATHTCPPC
0.0099	0.027	0.73	0.045	18	5.4	0.091	–	–	–	IP381 (Fc fusion) YSEGTFTSDYSKLLEEEAVRLFIEYLLAGGGGGGSGGGGSGGGGSGGGGSATHTCPPC
–	–	–	–	–	–	–	–	> 1000	0.011	HGEGTFTSDVSSYLEEQAAKEFIAWLVKGR (Fc fusion, not shown: a dimerising Fc or GST, also: fused to linker, hinge and IgG4 Fc (not given here)) [GLP-1 analogue-Fc (gamma4) fusion control]
